The DeepSol protein solubility set

Experiment: soluble on expression in E. coli; label from the status in PepcDB or PDB records

| Sequence | soluble on expression in E. coli |
| --- | --- |
| MGSDKIHHHHHHMAFKQRREYLFLYTVKDANPNGDPLNENHPRYDGDTAQAMASDVRVKRTTRDEWVRSGEIVFVDGEPKSLKTRFEELKKITGKSDAREIMKQCLDVRLFGVTFALGKEAFAWTGPVQFKWGRSLHSASFEFVQGTAAFATERGGADNRQRSFRNEYLVPFALMGVYAIANQYASQYTDAADEDLQRMLDGLWQGTDNLITRSKNEHKSRLLIEITYKEDFNGKIGALDDKVTLLDREGKVMDREKQKALRSLQEVSLDIGALLKSMELKQEQIAGIRVITDGEINIIQEEQLKGISSIEVR | not soluble |
| MKNNKPICFYDIYCFKPQECFKRNDINLLEDKLKRYSKITFLRNKENPEIIFLLGGDGSFINFINQQWKKNVKIVGINYGQLGFYSSYDSIKTINLDEIIDENMYYNPLLLKVSINNQNFFYCLNELSLFSNELVSFDISINDYPYEKFRGSGLLFVTPSGSTGKNKTAFGPIIFNNHENFIMTEIFPVNHLKYSSLNAPVVFRKDYKISLTNIKFKKSFSVAIDGNIINFSDKINDIKVETIQASSKIHGLNNFKKYIDKLNKSFIKGEMAGDPLEHHHHHH | soluble |
| YLASDGKTIIMVGRNNLQNEELTFKIAKKGELWFHAKDIPGSHVVIKDNLNPTDEVKTDAAELAAYYSKARLSNLVQVDMIDVKKLNK | not soluble |
| MGSDKIHHHHHHMTKMLRTYKFRIYPTREQEEKLAKHFGHTRFVYNFFLNYANIIYRVMERPTYYNEWASVLVKLKKTNKYSWLNEVNSQALQQSLKDLERAFKNFFKKQAGYPKFKKKKFSRQTFRIPQHIQLYIKEDNPKYGCIFVPKFKEGIKVRLHRKLPKDGKIKQATFIKTATNKYYAAIVFEVQDAEVQNTSTGILGIDLGIKDTITLSDGKKYKMPDLSKYERQIKRLHRRLSRKQRGSKNWEKARLCLAKLYEKIVNIKNDWLHKITHDLVSESQAGKIVVEDLNIKGMVQNHRLARHIHMQSWRRFLELLEYKAKRCGIEVIKANRYYPSSQMCSECGYINKEVKDLSVREWTCPVCGAHHDRDVNAAKNLVRYGLMLSIGREPSEFTPVDSALAAEPERGLRAITG | not soluble |
| MTKTAFLFAGQGAQYLGMGRDFYDQYPIVKETIDRASQVLGYDLRYLIDTEEDKLNQTRYTQPAILATSVAIYRLLQEKGYQPDMVAGLSLGEYSALVASGALDFEDAVALVAKRGAYMEEAAPADSGKMVAVLNTPVEVIEEACQKASELGVVTPANYNTPAQIVIAGEVVAVDRAVELLQEAGAKRLIPLKVSGPFHTSLLEPASQKLAETLAQVSFSDFTCPLVGNTEAAVMQKEDIAQLLTRQVKEPVRFYESIGVMQEAGISNFIEIGPGKVLSGFVKKIDQTAHLAHVEDQASLVALLEKL | soluble |
| MAHHHHHHMNESSIYIYNLTRNVSINHLKEIFMNFGTLKDVQYVTYVEESMFHEKGDGKDGDKKEDNDDKEEDDDKEEDNNKEEDNDKEEDNDKEEDNDNNDDNNDDNNDDNNDDGDDNDDNHICVHIKYENSKEAQAAKEFMDGGQIDGKIISVKYKINHKYIKTYTKKKKEKKKKN | not soluble |
| MGSDKIHHHHHHMMTAHAIGTREEWLAARLDLLEAEKNLTRRSDELAKWRRELPWVRIDKAYRFETDEGEASLRDLFKGRSQLLVYHFMFGPDYTAGCPSCSAIADGFNGIVAHLENHDVAFSAVSRAPLAKLTAYKRRLGWSFPWASSDDGAFNRDFCVWFTEQQQREGGIEYNFRREPPIPEQPASEPLAGRTVREWDASGSEGPVAQIAAMTGTDVATYTRDRPGVSAFALEDGIVYHTYSSYARGLDGLWGMYQWLDRTPKGRNENGIWWRRHDEYAQG | not soluble |
| MRTNVPDQQSTVQKLLDENSRLIDIIQEYLNQSRADEAIKHQQLLHRNLLHLSNLADPFLLSQLKDDGTAAAALPDPNQQQPQPGASGPPAPHLQQQQPQHSPQQGHPHPQQGLPAAHHRQQMMPPQAAPSPGGPMQPPHGFAPPPMGGGVPPEMMNHQAYQAQMRQQQQQPNGQAPPPVYPPFGQPAPQMSGQRMPYPYPPQGMPGYPGGPPPPPHGYEGYPPPGAQPGYMR | soluble |
| MGSDKIHHHHHHGETIDLGHDTTLDYSVTASYGAAVRTGTQSNTLLSPANINGDDGNRNFKRGDMTANRVSLLGEAHVKHDAFGALVRGSVFYDWAYSGTNSNNAPGTVNHSGPFNEFTGSARDYHESRAQLLDAYVYGAVPIESTQLSFKLGNQVVAWGESLFFANIAGAQGPADATKAFVPGAEVKDILLPVPQASVQWQVTPAFSLMGYYQFTFKPNQLFAPGSYFSTSDIVGPGAEFIIGPGFRIPRGPDISPSDWGQWGIGGRFRVFEDTEIGLYQLRYHDKNPSVVTSLFPTLQYQQKYFGGINLTGASFSTQLAGANVAGEVSYKDGVPMLVDVAGSPTASRGKALQAQLSAIYAIGPTFLANSQTLLGEIAYLHVIGVDSVMGFDKLSNTRNSAAFQVGWSLTYNNVFDGWDLTVPLTYAQQFSGNAAVAGAFGTLMGYGDKRASVGLTFKYLNNLELNLTYAAFIGGASIANRPLADRDYVAFNAKYSF | not soluble |
| MSQQIQMKSVIDVKFPTHLFSPLATSSPKLTRMRAPIRDQSWSSCSDDSSGNLTSQAITGVDDSHIEATKLENESSTSSCSMHTALEFVNSSIFERVRSYSEVITREELQSAIFERKLTETDCSKEEAEMYSIIVTERILWTAGRTWTGTIQVKTKDLLNDYVRYACEDWYMKHTGQLCAVELNHIGKWDEIFDSNAIAIYCYETGIPTIIVDRIFSSNLVRRSTGNYLDTKEVTWLIFAMIGTDENQSIEYWFRVLDVQSTGILQLDDLRMFYDAITKFLVNNNVQSLPFENAIAQFRDILGTDKWNLQSFKKNSQLAFRVINGFVCALRFLEQEICEKTNTERQDDEEFGMVRTRWQRLIDHKFDDYYAQSSTSSSGSFNINNEPINPV | not soluble |
| MIIKSISLMHDRGNGLGGGFAAYGIYPDFKEFFAFHLMYENGMALQLTEEYLERHFFVEHYEEIPTRRTPAIVHPPLFKRYFVKPLETPEYREAIDYQNMTDEDVVVRHVMAINNEIEGAFVVSSGKNMGAFKGVGYPEEIADFFRLEEYTGYIWTAHNRFPTNTPGWWGGAHPFTLLDWSIVHNGEISSYGINKRYLEMYGYVCTMLTDTEVVAYTLDLLIRKHGLTPELASLAMAAPFWDMIDGLPDDERQLLTAIRQVYGSALLNGPFAILFASNEGLIGLNDRVKLRPLVCATKDDFVYMASEEAAIREICPAPDKVWSPRGGEPVIVKMQPGVI | not soluble |
| HVKLEQLGIPRQVLKYDDFLKSTQKSPATAPKPMPPRPPLPNQQFGVSLQHLQEKNPEQEPIPIVLRETVAYLQAHALTTEGIFRRSANTQVVREVQQKYNMGLPVDFDQYNELHLPAVILKTFLRELPEPLLTFDLYPHVVGFLNIDESQRVPATLQVLQTLPEENYQVLRFLTAFLVQISAHSDQNKMTNTNLAVVFGPNLLWAKDAAITLKAINPINTFTKFLLDHQGELFPSPDPSGL | soluble |
| MSLSENIAAYVGLDVHKETLAVAIAAPERLGEVRYYGTINNEAQAVRRLFQKLQGLYGNILSCYEAGPCGFGLYHQLTAMNIKCQVIAPSRIPKSPTDRIKNDHRDAISLARLLRAGELTPVWIPDLTHEAMRDLIRARAAAKRDSRVARQRILSMLLRTDKHYAGKHWTGKHRTWLANQSFSQPSQQIAFQHYCQSLEQIEDRILQLDQEISRLLPEWSLCNLVCQLQALKGVGQLIAITLVAELGDFSRFSNPKQLMAFLGLVPGEYSSGNSIRPRGITKVGNSELRRLLYEAAWSYRTPAKVGAWLIYYRPDSVTQYSKDIAWKAQQRLCSRYRSLTAKGKKSQVAITAVARELTGFMWDIALAEGHHHHHH | not soluble |
| MEEIKPASASCVSKEKPSKVSDLISRFEGGSSLSNYSDLKKESAVNLNAPRTPGRHGLTTTPQQKLLSQHLPQRQGNDADKTQGAQTCVANGVMAAQNQMECEEEKAATLSSDTSIQASEPLLDTHIVNGERDETATAPASPTTDSCDGNASDSSYRTPGIGPVLPLEERGAETETKVQERENGESPLELEQLDQHHEMKETNEQKLHKIANELLLTERAYVNRLDLLDQVFYCKLLEEANRGSFPAEMVNKIFSNISSINAFHSKFLLPELEKRMQEWETTPRIGDILQKLAPFLKMYGEYVKGFDNAMELVKNMTERIPQFKSVVEEIQKQKICGSLTLQHHMLEPVQRIPRYEMLLKDYLRKLPPDSLDWNDAKKSLEIISTAASHSNSAIRKMENLKKLLEIYEMLGEEEDIVNPSNELIKEGQILKLAARNTSAQERYLFLFNNMLLYCVPKFSLVGSKFTVRTRVGIDGMKIVETQNEEYPHTFQVSGKERTLELQASSAQDKEEWIKALQETIDAFHQRHETFRNAIAKDNDIHSEVSTAELGKRAPRWIRDNEVTMCMKCKEPFNALTRRRHHCRACGYVVCWKCSDYKAQLEYDGGKLSKVCKDCYQIISGFTDSEEKKRKGILEIESAEVSGNSVVCSFLQYMEKSKPWQKAWCVIPKQDPLVLYMYGAPQDVRAQATIPLLGYVVDEMPRSADLPHSFKLTQSKSVHSFAADSEELKQKWLKVILLAVTGETPGGPNEHPATLDDHPEPKKKSEC | soluble |
| MKSLEEILQYNEKFVEEKKYEEFVAGKFPNKKMVIISCMDTRLVELLPKAMNMRNGDVKIIKVAGAVISHPFGSIMRSILVAVYELGADEVCVVGHHDCGMAKIQASSTIEKMKERGITEEKLDMLRYSGIDLEQFLRGFSSVEESVEHSVSVLRNHPLLPEEVPVHGLVIDPDTGKLDLVVNGYDN | not soluble |
| MHGRLKVKTSEEQAEAKRLEREQKLKLYQSATQAVFQKRQAGELDESVLELTSQILGANPDFATLWNCRREVLQHLETEKSPEESAALVKAELGFLESCLRVNPKSYGTWHHRCWLLSRLPEPNWARELELCARFLEADERNFHCWDYRRFVAAQAAVAPAEELAFTDSLITRNFSNYSSWHYRSCLLPQLHPQPDSGPQGRLPENVLLKELELVQNAFFTDPNDQSAWFYHRWLLGRAEPHDVLCCVHVSREEACLSVCFSRPLTVGSRMGTLLLMVDEAPLSVEWRTPDGRNRPSHVWLCDLPAASLNDQLPQHTFRVIWTGSDSQKECVLLKDRPECWCRDSATDEQLFRCELSVEKSTVLQSELESCKELQELEPENKWCLLTIILLMRALDPLLYEKETLQYFSTLKAVDPMRAAYLDDLRSKFLLENSVLKMEYADVRVLHLAHKDLTVLCHLEQLLLVTHLDLSHNRLRALPPALAALRCLEVLQASDNALENVDGVANLPRLQELLLCNNRLQQSAAIQPLVSCPRLVLLNLQGNSLCQEEGIQERLAEMLPSVSSILT | soluble |
| GSHMASDRKTEFILCVETFNEKAKKGIQMLIEKGFIDSDSNRDIASFLFLNNGRLNKKTIGLLLCDPKKTSLLKEFIDLFDFKGLRVDEAIRILLTKFRLPGESQQIERIVEAFSSKYSADQSNDKVELEDKKAGKNGSESMTEDDIIHVQPDADSVFVLSYSIIMLNTDSHNPQVKDHMTFDDYSNNLRGCYNGKDFPRWYLHKIYTSIKVKEIVMPEEH | soluble |
| MGSDKIHHHHHHMPMRKEQQSRPDLRVLKSLMVCATIAASLILHSPSLMAAEEATGATSTAPSACSINPSEKLKNLFTEVKQYLGIRYRFGGDTPSGFDCSGFVRFMFNKEFNVNLPRSSREMATIGTRIDRNELRPGDLVFFKNAEDRINHVGIFVGNDTFVHSSLSKGITRDTLNESYYSKRFATGVRILDIQGNRIPDDFNNLFDESNNGNSPS | not soluble |
| MIMLIKKLLETTAAAEEKARQLAEMETDEAWAVYLAEAERQRKLWQYVHYLVAGANADGRAEREQSKAGAPRCDLLQAMAAAEWEKAMLCQNVCQSLNGAAKQAVDAVFRQALRYSGQFLAMAYDERARQTAD | not soluble |
